Measured values taken from patent publication US20150183856A1 (ABLBIO, published 2015).
Numbering of substitutions follows the chain as printed.

B1: MLCK-1 (antibody, V domains shown)
VH: EVQLLESGGGLVQPGGSLRLSCAASGFTFSDYAMSWVRQAPGKGLEWVSWIYSDDGNKYYADSVKGRFTISRDNSKNTLYLQMNSLRAEDTAVYYCARADPPFDYWGQGTLVTVSS
VL: QSVLTQPPSASGTPGQRVTISCTGSSSNIGSNNVSWYQQLPGTAPKLLIYSDNNRPSGVPDRFSGSKSGTSASLAISGLRSEDEADYYCATWDSSLNGYVFGGGTKLTVL
notes: Human monoclonal antibody from a phage scFv library; Only the variable regions are tied to the clone; In flow cytometry it was detected with an anti-human IgG Fc-specific antibody, so it carries a human Fc; also called anti-DLL4 antibody
B2: MLCK-2 (antibody, V domains shown)
VH: B1 VH with D54G, D55S, P101W
VL: B1 VL with N33D, S35T, S51A, N53S, N54K, A90G, S94Y, N97S, G98A
notes: Human monoclonal antibody from a phage scFv library; Only the variable regions are tied to the clone; In flow cytometry it was detected with an anti-human IgG Fc-specific antibody, so it carries a human Fc; also called MLCK-2 mAb; anti-DLL4 antibody
B3: MLCK-3 (antibody, V domains shown)
VH: B1 VH with S53Y, D55S, N57S, P101L
VL: B1 VL with T23S, S31N, N33A, S35T, N54H, A90G, S94A, N97S
notes: as for B1
B4: MLCK-4 (antibody, V domains shown)
VH: EVQLLESGGGLVQPGGSLRLSCAASGFTFSNYAMSWVRQAPGKGLEWVSWIYHGGGDTYYADSVKGRFTISRDNSKNTLYLQMNSLRAEDTAVYYCARGPNYTFGKPFDYWGQGTLVTVSS
VL: QSVLTQPPSASGTPGQRVTISCRGSPSNIGNNTVYWYQQLPGTAPKLLIYSDSQRPSGVPDRFSGSKSGTSASLAISGLRSEDEADYYCGSWDYSLSAYVFGGGTKLTVL
notes: as for B1

How the values were obtained:
[1] = target: T1, human DLL4 stably expressed on HEK 293 cells (human, UniProt Q9NR61 27-685); experiment: flow cytometry on HEK293 cells stably expressing human DLL4, 10 ug antibody
T1 construct: whole, on cells; also called human DLL4 antigen
T1 sequence (Q9NR61 27-685): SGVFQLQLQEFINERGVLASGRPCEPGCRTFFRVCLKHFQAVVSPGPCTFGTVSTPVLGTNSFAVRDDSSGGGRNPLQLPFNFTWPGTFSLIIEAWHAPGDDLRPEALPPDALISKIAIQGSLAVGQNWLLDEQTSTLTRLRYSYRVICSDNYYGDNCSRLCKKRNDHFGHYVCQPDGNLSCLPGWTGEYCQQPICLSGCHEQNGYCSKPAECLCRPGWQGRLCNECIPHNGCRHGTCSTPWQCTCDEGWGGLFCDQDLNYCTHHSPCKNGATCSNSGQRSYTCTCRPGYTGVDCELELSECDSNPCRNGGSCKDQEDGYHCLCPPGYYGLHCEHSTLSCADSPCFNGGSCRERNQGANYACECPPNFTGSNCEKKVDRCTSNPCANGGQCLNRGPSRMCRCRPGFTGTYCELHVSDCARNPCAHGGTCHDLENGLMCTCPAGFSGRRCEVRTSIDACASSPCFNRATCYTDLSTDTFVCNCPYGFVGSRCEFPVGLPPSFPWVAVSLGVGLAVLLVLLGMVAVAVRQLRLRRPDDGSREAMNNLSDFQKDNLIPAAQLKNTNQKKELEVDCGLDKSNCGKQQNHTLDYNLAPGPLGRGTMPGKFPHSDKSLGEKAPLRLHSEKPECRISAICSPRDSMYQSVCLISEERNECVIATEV
Experimental: Specifically, human embryonic kidney cells (HEK 293) that stably express human DLL4 were prepared, and the degree of binding of the anti-DLL4 antibodies to DLL4 was measured using the prepared cells and a FACSCalibur system (BD Biosciences). The HEK293 cells that stably expressed DLL4 were dissociated, washed with PBS, adjusted to a cell number of 1×10⁵ cells/200 μl PBS, treated with 10 μg of each of the DLL4 monoclonal antibodies, and then allowed to react at room temperature for 30 minutes. After the reaction, the cells were washed with PBS and reacted with an FITC-labeled Fc-specific antibody (goat anti-human IgG FITC conjugate, Fc specific, Sigma, F9512; concentration: 2.0 mg/ml) at a concentration of 5 μl/1×10⁵ cells/200 μl PBS at 4° C. for 1 hours. After the reaction, the cells were washed with PBS and analyzed using a FACSCalibur system. A control group was treated only with an FITC-labeled Fc-specific antibody. The results of analysis of human DLL4-minoclonal antibody-FITC binding in the test group treated with each of the DLL4 monoclonal antibodies were compared with those in the control group.

[2] = target: T2, human DLL4 extracellular domain protein, His-tagged (R&D System Cat: 1506-D4/CF) (human, UniProt Q9NR61 27-522); experiment: SPR (Biacore T200), hDLL4 immobilized on CM5 chip, antibody as analyte, 1:1 model
T2 construct: range 27-522; Bought protein; also called hDLL4-His; human DLL4-His; not shown: C-terminal histidine tag
T2 sequence (Q9NR61 27-522 limits assumed): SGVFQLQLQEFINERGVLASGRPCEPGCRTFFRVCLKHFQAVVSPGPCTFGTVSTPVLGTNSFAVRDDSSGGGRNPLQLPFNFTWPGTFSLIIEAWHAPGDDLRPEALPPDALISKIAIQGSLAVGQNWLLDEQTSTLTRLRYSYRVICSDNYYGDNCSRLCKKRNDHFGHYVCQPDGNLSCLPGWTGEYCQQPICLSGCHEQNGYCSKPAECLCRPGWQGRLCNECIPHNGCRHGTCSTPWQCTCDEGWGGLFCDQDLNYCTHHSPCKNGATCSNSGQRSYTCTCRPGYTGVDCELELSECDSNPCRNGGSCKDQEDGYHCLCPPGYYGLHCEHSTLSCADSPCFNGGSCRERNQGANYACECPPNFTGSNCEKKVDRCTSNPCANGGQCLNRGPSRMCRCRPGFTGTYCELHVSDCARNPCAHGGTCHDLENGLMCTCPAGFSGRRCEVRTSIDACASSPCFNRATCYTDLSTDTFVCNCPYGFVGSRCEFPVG
Experimental: (§1) To be specific, Biacore T200 was used in SPR analysis and HBS-EP (10 mM HEPES, pH7.4, 150 mM NaCl, 3 mM EDTA, 0.15% surfactant P20) was used as a running buffer. Surface preparation was done by using a surface preparation target immobilization tool of a wizard program (condition: 25° C., 5 μl/min). A ligand, hDLL4, was diluted in 10 mM sodium acetate (pH 4.5) to a final concentration of 10 μg/ml, and then immobilized to the surface of CM5 chip by a target immobilization level for each test group. In the immobilization process, two flow cells were included as one set wherein the first flow cell was set as a blank and the second flow cell has hDLL4 immobilized to the surface thereof in the present experiment. The first flow cell acted as a reference to account for experimental variability due to nonspecific bindings and buffer effects, and in the analysis, subtracted RU values (Fc2-Fc1) were used as experimental results. Anti-DLL4 antibodies that bind to hDLL4, i.e., MLCK1, MLCK2, MLCK-3, and MLCK4, were diluted in a running buffer to a final molar concentration of 100 nM, serially diluted 5 times, and each of the 5 dilutions was analyzed. The sample to be analyzed was prepared to have high purity and high concentration, enough to be diluted more than 100 times at minimum, thereby minimizing buffer effect. All analysis was done by using a wizard program, screening duplicates for each sample and a regeneration step was included in between each analysis step, so that the standard of experiment remains constant. The experimental results were analyzed by Biaevaluation software version 4.0. At this time, to determine the RU values (Fc2-Fc1 and Fc4-Fc3), the baseline was set to zero, the value measured at a buffer injection part (analyte, 0 nM) was subtracted from a whole sensorgram. Then, the resulting RU value was analyzed by a 1:1 binding model to determine a binding affinity. The factors to be analyzed include kₐ(M⁻¹s⁻¹), kd(s⁻¹), Kₐ(1/M), and KD(M). […] Equilibrium dissociation constant KD(M) was calculated by dividing kd with kₐ (kd/kₐ).

[3] = target: T2, human DLL4 extracellular domain …; experiment: ELISA solution competition: antibody premixed with DLL4-His; blocks binding to plate-coated hNotch-1-hFc
Experimental: Each well of a 96-well microtiter plate (Nunc-Immuno Plate, NUNC, Rochester, N.Y.) was coated with 100 μl of 500 ng/ml of hNotch-1-hFc protein (R&D Systems) (diluted in PBS) at 4° C. overnight, and non-specific binding sites were blocked with BSA for 2 hours.
The anti-DLL4 antibody (purified protein) on the 96-well microtiter plate was premixed with serial dilutions of antigen protein (DLL4 antigen, 600 ng/m) at an antibody concentration ranging from 0 nM to 140 nM. The antigen/antibody mixture was incubated for 30 minutes, and then transferred to a microtiter plate precoated with the DLL4 receptor hNotch-1 protein (50 ng/well) in order to measure free antibody. Then, the plate was incubated for 2 hours and washed five times with 0.05% tween 20-containing PBS. In order to detect the DLL4 antigen bound to the plate, an HRP-conjugated His anti-mouse IgG polyclonal antibody reagent (Roche applied science) was diluted at a ratio of 1:500, and the washed microtiter plate was treated with the diluted antibody reagent, and then allowed to react at 37° C. for 1 hour. Then, color development was performed using a colorimetric substrate (3,3′,5,5′-tetramethylbenzidine; Sigma-Aldrich Co.), and the enzymatic reaction was stopped using 0.5 mol/l of sulfuric acid. The amounts of antibodies required to achieve a 50% decrease in human DLL4-His bound to plate-coated Notch 1-Fc (IC₅₀) are shown in Table 1 below.

[4] = target: T2, human DLL4 extracellular domain …; experiment: ELISA, plate coated with hDLL4-His 2 ug/ml, bound antibody detected with HRP-conjugated anti-Fab
Experimental: The anti-DLL4 antibody-antigen binding affinity was evaluated using an ELISA-based binding test. A 96-well microtiter plate (Nunc-Immuno Plate, NUNC, Rochester, N.Y.) was coated with 2 μg/ml of hDLL4-His protein in PBS solution at 4° C. overnight, and non-specific binding sites were blocked with BSA (bovine serum albumin) for 2 hours. The anti-DLL4 antibody (purified protein) on the 96-well microtiter plate was transferred to a microtiter plate at an antibody concentration ranging from 0 nM to 128 nM. Then, the plate was incubated for 2 hours, after which the plate was washed five times with 0.05% tween 20-containing PBS, and in order to detect the plate-bound DLL4 antibody, an HRP-conjugated Fab polyclonal antibody reagent (Pierce) was diluted at a ratio of 1:10,000, transferred to the washed microtiter plate, and then allowed to react at 37° C. for 1 hour. After the reaction, color development was performed using a colorimetric substrate (3,3′,5,5′-tetramethylbenzidine; Sigma-Aldrich Co.). The enzymatic reaction was stopped using 0.5 mol/l of sulfuric acid, and the absorbance at 450 nm-650 nm was recorded using a microplate reader (molecular device). As a result, it was shown that the binding affinities of the antibodies for DLL4 increased in a concentration-dependent manner (FIG. 2).

[5] = target: T2, human DLL4 extracellular domain …; experiment: SPR (Biacore T200), hDLL4 immobilised on a CM5 chip, antibody as analyte; the table says 'Bivalent binding'
Experimental: as §1, with “Then, the resulting RU value was analyzed by a 1:1 binding model to determine a binding affinity.” left out

Binder | degree of binding to DLL4 antigen compared to the control group [1] [%] | Kd [2] [nM] | IC50 [3] [nM] | EC50 (read off the curve) [4] [pM] | Ka [5] [M⁻¹] | koff [5] [s⁻¹] | kon [5] [M⁻¹ s⁻¹]
B1 | 47.8 | 263 | 1.32 | ~0.1 | 3.8e+06 | 0.0169 | 64100
B2 | 59 | 1.71 | 0.41 | ~0.04 | 5.86e+08 | 0.000232 | 136000
B3 | 52.9 | 6.96 | 0.38 | ~0.05 | 1.44e+08 | 0.00359 | 516000
B4 | 52.5 | 2130 | 3.72 | ~0.2 | 469000 | 0.00474 | 2220
